Holding throughout (conditions): protein: recombinant; tags: His6 tag, cleaved by thrombin; chain copies: 2
Data set [1] has as its target T1, NR7 deltaA/B (called full-length NR7), homodimer (Branchiostoma lanceolatum, UniProt A0A6B9UN24 30-389). As to the kind of experiment: SEC-nMS; Oligos annealed in 10 mM Tris-HCl pH 8.0, 100 mM NaCl, 0.1 mM EDTA; protein dimer:DNA 1:1.2; native 8% PAGE in 60 mM Tris/40 mM CAPS pH 9.4, pre-run at 4 C; SEC-nMS buffer not given in the material.
Data set [2] concerns the target T1, NR7 deltaA/B (called full-length NR7), …. As to the kind of experiment: SEC-nMS; homodimer on DNA, 102405 Da; Oligos annealed in 10 mM Tris-HCl pH 8.0, 100 mM NaCl, 0.1 mM EDTA; protein dimer:DNA 1:1.2; native 8% PAGE in 60 mM Tris/40 mM CAPS pH 9.4, pre-run at 4 C; SEC-nMS buffer not given in the material.
For data set [3] the target is unchanged. Put plainly: SEC-nMS; NR7 and RXR mixture; Oligos annealed in 10 mM Tris-HCl pH 8.0, 100 mM NaCl, 0.1 mM EDTA; protein dimer:DNA 1:1.2; native 8% PAGE in 60 mM Tris/40 mM CAPS pH 9.4, pre-run at 4 C; SEC-nMS buffer not given in the material.

T1 sequence (A0A6B9UN24 entry or part of it mutant): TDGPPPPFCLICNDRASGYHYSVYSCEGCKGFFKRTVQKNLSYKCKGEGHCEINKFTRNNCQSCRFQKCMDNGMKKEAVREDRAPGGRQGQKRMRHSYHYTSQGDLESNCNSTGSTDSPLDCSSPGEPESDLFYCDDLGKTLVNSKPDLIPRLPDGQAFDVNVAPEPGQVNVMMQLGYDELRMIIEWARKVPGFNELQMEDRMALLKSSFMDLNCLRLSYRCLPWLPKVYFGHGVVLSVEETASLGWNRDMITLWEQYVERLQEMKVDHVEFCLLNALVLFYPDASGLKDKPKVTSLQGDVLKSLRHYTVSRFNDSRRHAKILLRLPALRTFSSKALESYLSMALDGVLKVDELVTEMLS

B1: DR4 (dsDNA)
DNA 1: ATTTGAGGTCACAGGAGGTCACACAG
DNA 2: CTGTGTGACCTCCTGTGACCTCAAAT
On to B1, for which, in data set [1], the binding result is recorded as “binds”.

B2: DR0 (dsDNA)
DNA 1: GATTTGAGGTCAAGGTCACACAGTTA
DNA 2: TAACTGTGTGACCTTGACCTCAAATC
With B2, the binding result in data set [2] is “binds”.

B3: IR3 (dsDNA)
DNA 1: GATTTGAGGTCACAGTGACCTCACAG
DNA 2: CTGTGAGGTCACTGTGACCTCAAATC
For the molecule B3, the binding result in data set [3] is listed as “binds”.

B4: DR1 (dsDNA)
DNA 1: GATTTGAGGTCAGAGGTCACACAGTT
DNA 2: AACTGTGTGACCTCTGACCTCAAATC
With B4, the binding result in data set [1] was “binds”.
